US20140341888A1 (CORNING, published 2014)

B1: 4A5-3.1.1-B4 (antibody, V domains shown)
VH: QVQLQQWGAGLLKPSETLSLTCAVYGGSFSGYYWSWIRQPPGKGLEWIGEINHSGSTNYNPSLKSRVTISVDTSKNQFSLKLSSVTAADTAVYYCARGYYDILTGYYYYFDYWGQGTLVTVSS
VL: EIVLTQSPATLSLSPGERATLSCRASQSVSRYLAWYQQKPGQAPRLLIYDASNRATGIPARFSGSGSGTDSTLTISSLEPEDFAVYYCQQRSNWPRTFGQGTKVEIKR
B2: IMC-11F8 IgG (antibody, V domains shown)
VH: QVQLQESGPGLVKPSQTLSLTCTVSGGSISSGDYYWSWIRQPPGKGLEWIGYIYYSGSTDYNPSLKSRVTMSVDTSKNQFSLKVNSVTAADTAVYYCARVSIFGVGTFDYWGQGTLVTVSS
VL: EIVMTQSPATLSLSPGERATLSCRASQSVSSYLAWYQQKPGQAPRLLIYDASNRATGIPARFSGSGSGTDFTLTISSLEPEDFAVYYCHQYGSTPLTFGGGTKAEIK

Key:
[1] = target: T1, recombinant soluble hTNFSF13b (native) (human, UniProt Q9Y275 134-285); experiment: SPR (BIAcore 2000), antibody captured by anti-human IgG Fc, hTNFSF13b from 50 nM, Langmuir 1:1 model
T1 construct: also called huTNFSF13b; Human TNFSF13b
T1 sequence (Q9Y275 134-285 limits assumed): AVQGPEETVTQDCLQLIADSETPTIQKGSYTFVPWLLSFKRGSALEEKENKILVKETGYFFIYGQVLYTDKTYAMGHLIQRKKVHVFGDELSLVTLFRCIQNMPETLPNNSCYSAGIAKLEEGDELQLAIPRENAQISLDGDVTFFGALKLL

EGFR-AP fusion protein = target: T2, EGFR-AP fusion protein (UniProt P00533 25-645); experiment: SPR (BIAcore), EGFR-AP immobilized, antibody 1.5 nM to 100 nM
T2 construct: Immobilized on the BIAcore sensor chip; construct not described

Row | Binder | Kd [1] | Kd (EGFR-AP fusion protein) | koff (EGFR-AP fusion protein) | kon (EGFR-AP fusion protein)
1 | B1 | 38 µM | – | – | –
2 | B2 | – | 0.32 nM | 0.00058 s⁻¹ | 1.86e+06 M⁻¹ s⁻¹
